Numbering of substitutions follows the chain as printed. Names and notes keep the numbering of the source.
T1: recombinant human APRIL (human, UniProt O75888 105-250, limits assumed)
T1 sequence (looked up): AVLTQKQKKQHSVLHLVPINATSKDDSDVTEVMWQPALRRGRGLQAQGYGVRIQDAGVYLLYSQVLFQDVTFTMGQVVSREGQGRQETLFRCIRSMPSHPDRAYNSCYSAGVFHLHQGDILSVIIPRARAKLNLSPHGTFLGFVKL

B1: CTLA-4 165 GSG4S Fc (G4S)2 BCMA 356 (Fc fusion)
chain: KAMHVAQPAVVLASSRGIASFVCEYASPGKATEVRVTVLRQADSQVTEVCAASYMMGNELTFPDDSICTGTSSGNQVNLTIQGLRAMDTGLYICKVEQMYPPPYYLGIGNGTQIYVIDPEPCPDSDGSGGGGSEPKSSDKTHTCPPCPAPEAEGAPSVFLFPPKPKDTLMISRTPEVTCVVVDVSHEDPEVKFNWYVDGVEVHNAKTKPREEQYNSTYRVVSVLTVLHQDWLNGKEYKCKVSNKALPAPIEKTISKAKGQPREPQVYTLPPSRDELTKNQVSLTCLVKGFYPSDIAVEWESNGQPENNYKTTPPVLDSDGSFFLYSKLTVDKSRWQQGNVFSCSVMHEALHNHYTQKSLSLSPGGGGGSGGGGSLQMAGQCSQNEYFDSLLHACIPCQLRCSSNTPPLTCQRYCNASVTNSVKGTNA
B2: CTLA-4 92 GSG4S Fc (G4S)2 BCMA 356 (Fc fusion)
chain: B1 chain with G29W, S53T, N58S, Q82R, Y105L
B3: CTLA-4 165 GSG4S Fc (G4S)2 BCMA 357 (Fc fusion)
chain: B1 chain with H392Y
B4: CTLA-4 113 GSG4S Fc (G4S)4 TACI 535 (68-110) (Fc fusion)
chain: KAMHVAQPAVVFASSHGIASFVCEYASPWKATEVRVTVLRQADSQVTEVCAATYMTGNELTFLDDSICTGTSSGNQVNLTIQGLRAMDTGLYICKVEQMYPPPYLLGIGNGTQIYVIDPEPCPDSDGSGGGGSEPKSSDKTHTCPPCPAPEAEGAPSVFLFPPKPKDTLMISRTPEVTCVVVDVSHEDPEVKFNWYVDGVEVHNAKTKPREEQYNSTYRVVSVLTVLHQDWLNGKEYKCKVSNKALPAPIEKTISKAKGQPREPQVYTLPPSRDELTKNQVSLTCLVKGFYPSDIAVEWESNGQPENNYKTTPPVLDSDGSFFLYSKLTVDKSRWQQGNVFSCSVMHEALHNHYTQKSLSLSPGGGGGSGGGGSGGGGSGGGGSSLSCRKEQGKFYDHLLGDCISCASICGQHPKQCAYFCENKLRS
B5: Fc (G4S)2 BCMA (356) (Fc fusion)
chain: EPKSSDKTHTCPPCPAPEAEGAPSVFLFPPKPKDTLMISRTPEVTCVVVDVSHEDPEVKFNWYVDGVEVHNAKTKPREEQYNSTYRVVSVLTVLHQDWLNGKEYKCKVSNKALPAPIEKTISKAKGQPREPQVYTLPPSRDELTKNQVSLTCLVKGFYPSDIAVEWESNGQPENNYKTTPPVLDSDGSFFLYSKLTVDKSRWQQGNVFSCSVMHEALHNHYTQKSLSLSPGGGGGSGGGGSLQMAGQCSQNEYFDSLLHACIPCQLRCSSNTPPLTCQRYCNASVTNSVKGTNA
B6: Fc (G4S)2 BCMA (357) (Fc fusion)
chain: B5 chain with H259Y
B7: BCMA 381 GSG4S-Fc-(G4S)4-CTLA-4 186 (Fc fusion)
chain: LQMAGQCSQNEYFDALLYACIPCQLRCSSNTPPLTCQQYCNASVTNSVKGTNAGSGGGGSEPKSSDKTHTCPPCPAPEAEGAPSVFLFPPKPKDTLMISRTPEVTCVVVDVSHEDPEVKFNWYVDGVEVHNAKTKPREEQYNSTYRVVSVLTVLHQDWLNGKEYKCKVSNKALPAPIEKTISKAKGQPREPQVYTLPPSRDELTKNQVSLTCLVKGFYPSDIAVEWESNGQPENNYKTTPPVLDSDGSFFLYSKLTVDKSRWQQGNVFSCSVMHEALHNHYTQKSLSLSPGGGGGSGGGGSGGGGSGGGGSKAMHVAQPAVVLASSRGIASFVCEYASPWKATEVRVTVLRQADSQVTEVCAATYMMGNELTFLDDSICTGTSSGNQVNLTIQGLRAMDTGLYICKVEQMYPPPYLLGIGNGTQIYVIDPEPCPDSD
B8: TACI 516 (G4S)3 CTLA 4 668 (other)
chain: VAMRSCPEEQYWDPLLGTCMSCKTICNHQSQRTCAAFCRSLSCRKEQGKFYDHLLRDCISCASICGQHPKQCAYFCENKLRSGGGGSGGGGSGGGGSKAMHVAQPAVVLASSRGIASFVCEYASPGKATEVRVTVLRQADSQVTEVCAATYMMGNELTFLDDSICTGTSSGNQVNLTIQGLRAMDTGLYICKVELMYPPPYYLGIGNGTQIYVIDPEPSPDSDQDYKDDDDKHHHHHH
B9: TACI 528 (EAAAK)6 CTLA 4 668 (other)
chain: SLSCRKEQGKFYDHLLRDCISCASICGQHPKQCAYFCENKLRSEAAAKEAAAKEAAAKEAAAKEAAAKEAAAKKAMHVAQPAVVLASSRGIASFVCEYASPGKATEVRVTVLRQADSQVTEVCAATYMMGNELTFLDDSICTGTSSGNQVNLTIQGLRAMDTGLYICKVELMYPPPYYLGIGNGTQIYVIDPEPSPDSDQDYKDDDDKHHHHHH
B10: CTLA-4 113 GSG4S Fc (G4S)4 TACI 688 (29-110) (Fc fusion)
chain: KAMHVAQPAVVFASSHGIASFVCEYASPWKATEVRVTVLRQADSQVTEVCAATYMTGNELTFLDDSICTGTSSGNQVNLTIQGLRAMDTGLYICKVEQMYPPPYLLGIGNGTQIYVIDPEPCPDSDGSGGGGSEPKSSDKTHTCPPCPAPEAEGAPSVFLFPPKPKDTLMISRTPEVTCVVVDVSHEDPEVKFNWYVDGVEVHNAKTKPREEQYNSTYRVVSVLTVLHQDWLNGKEYKCKVSNKALPAPIEKTISKAKGQPREPQVYTLPPSRDELTKNQVSLTCLVKGFYPSDIAVEWESNGQPENNYKTTPPVLDSDGSFFLYSKLTVDKSRWQQGNVFSCSVMHEALHNHYTQKSLSLSPGGGGGSGGGGSGGGGSGGGGSVAMRSCPEEQYWDPLLGTCMSCKTICNHQSQRTCAAFCRSLSCRKEQGKFYDHLLGDCISCASICGQHPKQCAYFCENKLRS
B11: TACI 528 (G4S)3 CTLA 4 668 (other)
chain: SLSCRKEQGKFYDHLLRDCISCASICGQHPKQCAYFCENKLRSGGGGSGGGGSGGGGSKAMHVAQPAVVLASSRGIASFVCEYASPGKATEVRVTVLRQADSQVTEVCAATYMMGNELTFLDDSICTGTSSGNQVNLTIQGLRAMDTGLYICKVELMYPPPYYLGIGNGTQIYVIDPEPSPDSDQDYKDDDDKHHHHHH
B12: TACI 516 (EAAAK)6 CTLA 4 668 (other)
chain: VAMRSCPEEQYWDPLLGTCMSCKTICNHQSQRTCAAFCRSLSCRKEQGKFYDHLLRDCISCASICGQHPKQCAYFCENKLRSEAAAKEAAAKEAAAKEAAAKEAAAKEAAAKKAMHVAQPAVVLASSRGIASFVCEYASPGKATEVRVTVLRQADSQVTEVCAATYMMGNELTFLDDSICTGTSSGNQVNLTIQGLRAMDTGLYICKVELMYPPPYYLGIGNGTQIYVIDPEPSPDSDQDYKDDDDKHHHHHH
B13: CTLA 4 165 GSG4S Fc (G4S)2 TACI 516 (Fc fusion)
chain: KAMHVAQPAVVLASSRGIASFVCEYASPGKATEVRVTVLRQADSQVTEVCAASYMMGNELTFPDDSICTGTSSGNQVNLTIQGLRAMDTGLYICKVEQMYPPPYYLGIGNGTQIYVIDPEPCPDSDGSGGGGSEPKSSDKTHTCPPCPAPEAEGAPSVFLFPPKPKDTLMISRTPEVTCVVVDVSHEDPEVKFNWYVDGVEVHNAKTKPREEQYNSTYRVVSVLTVLHQDWLNGKEYKCKVSNKALPAPIEKTISKAKGQPREPQVYTLPPSRDELTKNQVSLTCLVKGFYPSDIAVEWESNGQPENNYKTTPPVLDSDGSFFLYSKLTVDKSRWQQGNVFSCSVMHEALHNHYTQKSLSLSPGGGGGSGGGGSVAMRSCPEEQYWDPLLGTCMSCKTICNHQSQRTCAAFCRSLSCRKEQGKFYDHLLRDCISCASICGQHPKQCAYFCENKLRS
B14: CTLA 4 92 GSG4S Fc (G4S)2 TACI 516 (Fc fusion)
chain: B13 chain with G29W, S53T, N58S, Q82R, Y105L
B15: TACI 542 GSG4S Fc (G4S)4 (CTLA-4 186) (Fc fusion)
chain: SLSCRKEEGKFYDHLLQDCISCASICGQHPKQCAYFCENKLRSGSGGGGSEPKSSDKTHTCPPCPAPEAEGAPSVFLFPPKPKDTLMISRTPEVTCVVVDVSHEDPEVKFNWYVDGVEVHNAKTKPREEQYNSTYRVVSVLTVLHQDWLNGKEYKCKVSNKALPAPIEKTISKAKGQPREPQVYTLPPSRDELTKNQVSLTCLVKGFYPSDIAVEWESNGQPENNYKTTPPVLDSDGSFFLYSKLTVDKSRWQQGNVFSCSVMHEALHNHYTQKSLSLSPGGGGGSGGGGSGGGGSGGGGSKAMHVAQPAVVLASSRGIASFVCEYASPWKATEVRVTVLRQADSQVTEVCAATYMMGNELTFLDDSICTGTSSGNQVNLTIQGLRAMDTGLYICKVEQMYPPPYLLGIGNGTQIYVIDPEPCPDSD

biological target: recombinant human BAFF (human, UniProt Q9Y275 134-285); assay: cell-based or functional assay

| IC50 (nM) BAFF [nM] | IC50 BAFF (Δ Parental vTD) [ratio] | Binder |
| --- | --- | --- |
| 36.8 | 0.9 | B1 |
| 33.5 | 0.8 | B2 |
| 11.8 | 2.2 | B3 |
| 0.506 | 0.4 | B4 |
| 42.7 | 1 | B5 |
| 5.44 | 1 | B6 |
| 0.0617 |  | B7 |
| 8.75 | 3.4 | B8 |
| 5.18 | 2 | B9 |
| 0.566 | 0.4 | B10 |
| 8.41 | 3.3 | B11 |
| 3.42 | 1.3 | B12 |
| 0.928 | 0.5 | B13 |
| 1.73 | 1 | B14 |
| 0.179 |  | B15 |

biological target: T1, recombinant human APRIL; assay: cell-based or functional assay

| IC50 (nM) APRIL [nM] | IC50 APRIL (Δ Parental vTD) [ratio] | Binder |
| --- | --- | --- |
| 0.894 | 0 | B1 |
| 0.809 | 0 | B2 |
| 0.606 | 0.9 | B3 |
| 8.63 |  | B4 |
| 42.7 | 1 | B5 |
| 0.696 | 1 | B6 |
| 0.876 |  | B7 |
| 8.25 | 1.4 | B10 |
| 138 | 15 | B12 |
| 4.64 | 0.9 | B13 |
| 6.75 | 1.3 | B14 |
| 1.2 |  | B15 |

— patent US20230241168A1 (ALPINE IMMUNE SCIENCES, published 2023)
